# Target: arhg7_human ARHGEF7 (UniProt Q14155)
substance,measurement,value
Ras-related C3 botulinum toxin substrate 1 (Homo sapiens) (from UniProt P63000-1) G15A,effect of a mutation on the interaction,increasing interaction strength
